± gives the standard deviation of the averaged measurements.
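Also: ATP exposure 15 min at 22 °C before imaging.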

The series deals with ATP. Put plainly: switch fluorescence ratio, 500 uM ATP over buffer (Cy3 cluster intensity, sum of 5 cycles each) (fold (ratio)); higher = stronger signal-on switching upon ATP binding; sequences stand for … in TCGTCGGCAGCGTCAGATGTGTATAAGAGACAGTTTTTTTTTTTTTTTTTTTTTTTTT…TC. The following applies: aptamer strand: ATP DNA aptamer (quencher-CACCTGGGGGAGTATTGCGGAGGAAGG + anchor), 100 nM annealed; ATP concentration: 500 uM. The essentials: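 Values give the fluorescence ratio for each switch-domain sequence, averaged from per-cluster ratios of summed target-cycle to summed buffer-cycle Cy3 intensity. The Cy3-labelled switching-strand clusters sat on a modified Illumina MiSeq flow-cell, were annealed to 100 nM quencher-labelled ATP aptamer, and were imaged in selection buffer, then after 15 min with 500 uM ATP at 22 °C. Five cycles ran with NaOH stripping and re-annealing between them, and clusters outside 100-1000 RFU were excluded.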
On to AGATTATGTT, for which the switch fluorescence ratio amounted to 1.01 ± 0.029.
As for TCACGCCGGG, the switch fluorescence ratio was 1.04 ± 0.019.
For the sequence GCTGTCAATC, the switch fluorescence ratio stood at 1.11 ± 0.053.
Next, CAGGGGCTGG: 1.05 ± 0.03.
For TGATTCTTAG, the switch fluorescence ratio worked out at 0.989 ± 0.023.
As to GGGGCTGAGT, the switch fluorescence ratio is 0.954 ± 0.039.
Turning to GTTGGAAACA, the switch fluorescence ratio turned out to be 0.945 ± 0.01.
Next, CGAGTAGGAA: 0.984 ± 0.017; AATTTTAATG: 0.997 ± 0.022.
Regarding GGGGGGAGGC, the switch fluorescence ratio came to 0.995 ± 0.028.
As to GTCTCAAGTT, the switch fluorescence ratio came out at 1.02 ± 0.011.
AAAGTATCTT: the switch fluorescence ratio is 1.02 ± 0.037.
Consider TAATGACTCA, for which the switch fluorescence ratio was determined as 1.034 ± 0.008.
Turning to ATTCCAGAGG, the switch fluorescence ratio is 1.01 ± 0.02.
The value for TTTAGCTTAT was 0.9798 ± 0.0056; that for TGCTCGGTTT was 0.998 ± 0.045; that for GTTGCGCACA was 1.024 ± 0.0097.
Next, TTTAGGGCGC: 1.05 ± 0.044.
With TAAATGGAGG, the switch fluorescence ratio was 0.9891 ± 0.0061.
For TTATTAGGGG, the switch fluorescence ratio was 0.983 ± 0.028.
CACGTTGAAC: the switch fluorescence ratio was 1.11 ± 0.034.
In the case of CAATAGCACG, the switch fluorescence ratio is 1.03 ± 0.027.
As to CAGGGACGGG, the switch fluorescence ratio is 1.03 ± 0.018.
With GTCAGGGTAC, the switch fluorescence ratio stood at 1.09 ± 0.072.
Take GCGGGGACAT: the switch fluorescence ratio stood at 0.994 ± 0.013.
CCATATGT: the switch fluorescence ratio was 0.985 ± 0.028.
On to TGGGGGGTTT, for which the switch fluorescence ratio is 1 ± 0.04.
Turning to GCAGCTTGCA, the switch fluorescence ratio was 0.993 ± 0.018.
Next, GGGGGAATTA: 1.01 ± 0.029.
Regarding GCGGGAAAGG, the switch fluorescence ratio was determined as 0.978 ± 0.012.
For AGGCGGTGGC, the switch fluorescence ratio was 1.02 ± 0.11.
As for CTTGGGTCTG, the switch fluorescence ratio came to 1 ± 0.066.
Next, TCACGGGGGT: 1.17 ± 0.23; GATTAGGTGT: 1.098 ± 0.0067; CCAGTTGATA: 0.991 ± 0.032.
GGTGTAGATT: the switch fluorescence ratio came out at 1.07 ± 0.04.
The value for GCTTTGTGTA was 1.01 ± 0.049; that for AGTTGCGTAG was 0.989 ± 0.021; that for TAGGGAGAAT was 0.992 ± 0.054.
The value for TCCAGTGTTG was 1.08 ± 0.071; that for TTTGATTAAT was 0.987 ± 0.011.
Take GGGTATATTG: the switch fluorescence ratio came to 0.983 ± 0.011.
In the case of GGGGAATTCG, the switch fluorescence ratio was 1.02 ± 0.043.
The value for GGGTAATTGG was 0.986 ± 0.018; that for AGTAGCATTC was 1.724 ± 0.013.
As to TATGGCTGTG, the switch fluorescence ratio came out at 1.02 ± 0.06.
On to AAGAGGCGCT, for which the switch fluorescence ratio was determined as 0.995 ± 0.05.
As to CGTTCCAGGC, the switch fluorescence ratio was determined as 1.083 ± 0.0064.
Take TACGTGGGGT: the switch fluorescence ratio turned out to be 1.01 ± 0.018.
Take GGACCAAACG: the switch fluorescence ratio is 1.05 ± 0.024.
Consider GTGGTTGGGT, for which the switch fluorescence ratio amounted to 0.979 ± 0.023.
For the sequence GTTAACAGTT, the switch fluorescence ratio was determined as 0.989 ± 0.027.
As to TGGGGTTTGT, the switch fluorescence ratio is 0.976 ± 0.03.
On to GCAACCTGAG, for which the switch fluorescence ratio worked out at 1.56 ± 0.14.
The value for GGTAGTCCGT was 1.03 ± 0.016.
For ACTTGATAGG, the switch fluorescence ratio amounted to 1.03 ± 0.041.
With TCTATTAAGG, the switch fluorescence ratio came to 1 ± 0.013.
For AGCGGAACCC, the switch fluorescence ratio was determined as 1.03 ± 0.023.
Consider AAGAGGAGCG, for which the switch fluorescence ratio was found to be 0.9668 ± 0.0078.
In the case of ATTTAAATCT, the switch fluorescence ratio stood at 1.02 ± 0.023.
For TAGTGTTTGT, the switch fluorescence ratio turned out to be 0.979 ± 0.017.
Next, GAGAGGGGTC: 1.01 ± 0.045.
Regarding AAAAAGGTTT, the switch fluorescence ratio amounted to 0.978 ± 0.037.
For GGTCTAAGTG, the switch fluorescence ratio was determined as 0.9816 ± 0.0034.
As for GGGCACTCTT, the switch fluorescence ratio came to 1 ± 0.011.
As to GGTGTATGGG, the switch fluorescence ratio came to 1.01 ± 0.014.
AGCCGCCGGG: the switch fluorescence ratio was 1.04 ± 0.013.
Take AAGTCTATGG: the switch fluorescence ratio is 1 ± 0.054.
The value for TATAGGTCAG was 0.985 ± 0.011; that for GATAGACTCT was 0.975 ± 0.029.
For the sequence ATCGTGTAGG, the switch fluorescence ratio worked out at 0.99 ± 0.11.
Consider CGTGACGGTT, for which the switch fluorescence ratio worked out at 1.03 ± 0.062.
CTAGGCCTGG: the switch fluorescence ratio amounted to 1.013 ± 0.0081.
On to TTAATTCGCT, for which the switch fluorescence ratio was 1.04 ± 0.098.
On to CCGGGGGTTT, for which the switch fluorescence ratio came to 1.036 ± 0.0054.
Turning to GCATTGGTAT, the switch fluorescence ratio turned out to be 0.981 ± 0.011.
As for AATGTTAAAT, the switch fluorescence ratio is 0.979 ± 0.02.
For the sequence TTTAAGCTGT, the switch fluorescence ratio turned out to be 0.978 ± 0.049.
For GATATTTTGA, the switch fluorescence ratio worked out at 1.02 ± 0.019.
